# Fewer inactive variants are shown than the library holds.
# B1: TPR 5TU (parent)
# chain: GGAUCUUCUCGAUCUAACAAAAAAGACAAAUCUGCCACAAAGCUUGAGAGCAUCUUCGGAUGCAGAGGCGGCAGCCUUCGGUGGCGCGAUAGCGCCAACGUUCUCAACUAUGACACGCAAAACGCGUGCUCCGUUGAAUGGAGUUUAUCAUG
# Variants of: B1
# Assay: polymerase ribozyme fitness, log enrichment relative to wild type (log ratio); higher = more active; in vitro selection for triplet polymerase activity
# Method in brief: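 Genotype fitness is the logarithm of its enrichment divided by wild-type enrichment, using inverse-variance-weighted averages of replicates. That logarithm is base 2. Enrichment was measured by Illumina sequencing of input and output libraries from one triplicate in vitro selection round, with frozen incubation at −7 °C, on PCR-built, transcribed mutant libraries of each subunit of a heterodimeric triplet polymerase ribozyme, retaining genotypes with ≥10 input reads and ≥1 read per output.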
row,Variant,polymerase ribozyme fitness (log ratio)
1,C57U U82G,0.0517
2,C57A C105U A120G,0.486
3,A60C C85G,-3.9
4,A60C C85A,-2.62
5,G59A C63G C69G C93U,-2.27
6,G59C U82G G143C,-2.29
7,G59A G71U G84U G92A A115G C118G U144C C149G,≤ -4.2
8,G59C C87U U109G,-1.03
9,G58C C116G,0.494
10,G58C C116U,0.354
11,G59A U61A C72A,≤ -4.2
12,G59C U111G,≤ -4.2
13,C57A C114U A120G C129U,≤ -4.2
14,G59C G117A,1.39
15,G59U C79A G86A A89G A122G G141C,≤ -4.2
16,G59C U139A,≤ -4.2
17,G58C G92U A122G,-1.45
18,C57U A115G U144C,≤ -4.2
19,G58C C96G C125G G143U,≤ -4.2
20,C57G U82A C95G U134C,-1.35
21,G59C C93U G124C C125U A147U,-0.985
22,G59U G86A G143U,-3.52
23,G58U G84U A113G U139G,-2.95
24,C57U C85A C96G C116U G143C U148A,≤ -4.2

row,Variant,polymerase ribozyme fitness (log ratio)
1,G59A C96G,-1.1
2,G58C C87U U135C,-2.22
3,G59U A73G G86A C87U A138U A150G,≤ -4.2
4,G58A G59U C87U G136A,0.169
5,G59C C95U A106G C116A,0.288
6,C57A G58C G84A A91G,-3.28
7,U56G U90A,-3.7
8,C57U G94U C99A,-1.79
9,U56G G62U C85A A119C C131U,-1.78
10,G59U C76G A110U G124C A137G,≤ -4.2
11,U56G C69U A91U C105G U130A,≤ -4.2
12,C57U C95U U101C,-0.863
13,C57G G59A A73U G88C,≤ -4.2
14,C57A A73G,0.866
15,C57A G74A,-2.66
16,G59A G100A,≤ -4.2
17,G59U A64C G71A G117U,≤ -4.2
18,G58U G68A U148G,≤ -4.2
19,G58C C87U C114U,-2.21
20,G58A A98G,0.621
21,C57U A89U U101A C125U G141A U146A,≤ -4.2
22,G59C G83A C125A,-1.12
23,G59A C85G G92U C95A C116A U127G,≤ -4.2
24,C57U G59C C69G C96A,-1.45

row,Variant,polymerase ribozyme fitness (log ratio)
1,C57U G84A C99A,-1.59
2,C57U A64U G92A A138U U145G A150C,≤ -4.2
3,G58A G92A U127C U135G G143U U151G,≤ -4.2
4,G58U G81C C93G,-3.21
5,G58A U61A,-0.894
6,G59C A97U A106G C118G G124A U145G,-2.18
7,G59U C87A A97U,≤ -4.2
8,C57A U78G G86C A89U C96U A120U C129G,≤ -4.2
9,G59C C76A U78C C87A G94C C96U G100A U144A,≤ -4.2
10,C57U C69U,-0.915
11,G59A G83C,-0.954
12,C57U G86U A97C,-1.82
13,G59C C85A C95U A137C,≤ -4.2
14,C57G U82C C95U C125A C131U U135C U146C,-3.38
15,G59C G65C G136U,≤ -4.2
16,C57U C149U,-1.28
17,C57A G92C,-0.41
18,C57A G92A,-3.13
19,G58A A73U,-1.65
20,G59A U135A G141U,-1.18
21,U56G G62C A120C C132A U139G,≤ -4.2
22,G59C C96U,0.681
23,C57G C85A,-3.21
24,U56G G94A U139G,-1.18

row,Variant,polymerase ribozyme fitness (log ratio)
1,G59A U77C,-3.69
2,C57A A91G C132G,-4.05
3,C57U G81C C95A A122C,-0.59
4,G59A G86U A97U C108G C116G G143C,≤ -4.2
5,G58A G94A A106C,-0.37
6,G59U C95A C96G A119U C123U C149U,-3.57
7,C57U G62A C63U C87A G141A C149U,≤ -4.2
8,G59A A89U C95A A97U C99A C125G,≤ -4.2
9,G59A C93A G141C,-4.03
10,C57G A97U,-0.704
11,C57U C63A,0.923
12,C57U A64U G92C C105U,≤ -4.2
13,G59U G126A,0.622
14,C57A G92C G133A,-4.05
15,A60C G83A C85U U101G,-3.16
16,C57U G59C G83C,-1.17
17,C57U A73G G74A C114G U135A U151G,≤ -4.2
18,G59U C129G,-2.56
19,G59A C132A,-2.31
20,G58C A60G C63U G84A,0.439
21,G58A G80U U151G,≤ -4.2
22,C57U U104C C116G A120U C123A,0.628
23,G59C A60C C99U A119C,≤ -4.2
24,G58C G126U,-0.916

row,Variant,polymerase ribozyme fitness (log ratio)
1,C57G C87U,-2.97
2,C57A U90A C103G,≤ -4.2
3,C57U A147U,1.47
4,C57U C95A,-0.112
5,C57U A73G G143U U145G,≤ -4.2
6,G59C G86C,-3.39
7,C57U G59A G67A C93G,≤ -4.2
8,C57U A107C,-3.3
9,C57G C93U,-1.72
10,G58C A66G,-3.76
11,G58A A73G C85G A98C,-1.02
12,C57U A60U C95A C105U C125A,-2.41
13,A60C C85U A119C G124A,-1.25
14,C57G A110U C123A,-4.11
15,G59U C132A,-2.09
16,G59A U82G G117U,0.479
17,G59U C69G C95U C116G,-1.81
18,G59C U82C,0.0118
19,G58C G124C,-0.411
20,G58A U82G C96A A142G A147G,-3.38
21,G58A G141U,0.0168
22,G58A G141C,-0.279
23,G58C U77G C87G G152A,≤ -4.2
24,C57U G83C C87A G94U U146C,≤ -4.2

row,Variant,polymerase ribozyme fitness (log ratio)
1,G58A C63U C93A C105A,-4.05
2,G58U C75G G81A G92U A142G U144A,≤ -4.2
3,G58A G84A A142U G152A,-2.68
4,G58U C96U,-0.236
5,G59U C96U A98U,-0.711
6,G58C A107C U130G A137G A147G,≤ -4.2
7,C57A A113G,-1.32
8,C57U G58A U104G C105U,-3.63
9,C57U C87U C93A A107C,≤ -4.2
10,C57U U145A,0.046
11,C57U U145G,-0.309
12,G59A C79A U82A C96A,-3.85
13,G58C G94U C131U,-0.209
14,A60C C99A A113G U127G,≤ -4.2
15,G59C G71U G88U A98U C116G G124U,≤ -4.2
16,G59A G65C G68A U77C G133U,≤ -4.2
17,G59A C87U A137U,≤ -4.2
18,C57A G94C,0.0611
19,G58C G59A U102G A121U U127C,-3.85
20,G58A G83A,-0.976
21,G59A U61A C69A A142C,-3.27
22,G58C C76A G86A A147U,-2.24
23,G58A A60C G74A C85G C116G C123U C149G,≤ -4.2
24,G59U C87U,-0.949

row,Variant,polymerase ribozyme fitness (log ratio)
1,G59U G80A C85A,-0.927
2,G58A G83U A98U C103U,-1.15
3,A60C G83A C108G,≤ -4.2
4,G59U C93U,-3.08
5,C57U G68A C75G C76G C87A A98U U145C,≤ -4.2
6,G59C U148A,-2.88
7,G59A A138C U146C A150G,≤ -4.2
8,G58C G71C G92U C96U U145A,≤ -4.2
9,G59A A97G,-0.633
10,G58A A115C U135C G152U,≤ -4.2
11,C57U C116U U139C,≤ -4.2
12,G59A C85G G100A U134G U144G A150C,≤ -4.2
13,C57G C85A C118U G143C,-4.1
14,G58C C93U A110G,-3.82
15,G59U U82A C93A A142C,≤ -4.2
16,G59A C76G U78G C85U G88A G92C,≤ -4.2
17,C57U G86U C96A U109A U146A,-2.45
18,C57A C132U,-0.393
19,G58C C96U G128U,-3.69
20,G59U C96G G133C A137C,≤ -4.2
21,G59C C76A C85G C118U,-2.89
22,C57A C85A A147G,-1.09
23,G58A G81A C123U U146G A147G,-0.0286

# Source: the RNAGym collection of RNA variant scans (doi:10.1073/pnas.2313332121)
